The target of experiment [1] is T1, MERS-CoV S S1 subunit (MERS-S1) (MERS-CoV EMC isolate, UniProt K9N5Q8 19-748). Put plainly: see FIG. 29A.
For experiment [2], the target named is T2, MERS-S1^B domain (receptor binding domain) (MERS-CoV EMC isolate, UniProt K9N5Q8 358-588). Nature of the experiment: see FIGS. 5(A) and 29(A).
Experiment [3] addresses T2, MERS-S1^B domain (receptor binding …). Nature of the experiment: see FIG. 5A.
Experiment [4] addresses T3, MERS-S on pseudotyped VSV particles (MERS-S carrying a 16-a.a. cytoplasmic tail truncation) (MERS-CoV, UniProt K9N5Q8 18-1337). Put plainly: cell-based or functional assay.
Experiment [5] addresses T1, MERS-CoV S S1 subunit (MERS-S1). Put plainly: ELISA on coated MERS-S1, OD450 [D]. On the technique in general: ELISA stands for enzyme-linked immunosorbent assay.
The target in a further experiment is peptide 11. Put plainly: ELISA on coated overlapping MERS-S2 peptides, A450 [D00032 Fig. 14(B].
The target in another experiment is peptide 10. The experiment is described as above.
The target in experiment [6] is T2, MERS-S1^B domain (receptor binding …). Put plainly: ELISA on coated MERS-S1^B, OD450 [D].
The target in experiment [7] is T3, MERS-S on pseudotyped VSV particles …. Nature of the experiment: cell-based or functional assay. This is another data set of the same source.
The next experiment concerns the target T4, MERS-S1^A domain (MERS-CoV EMC isolate, UniProt K9N5Q8 19-357).
T4 sequence: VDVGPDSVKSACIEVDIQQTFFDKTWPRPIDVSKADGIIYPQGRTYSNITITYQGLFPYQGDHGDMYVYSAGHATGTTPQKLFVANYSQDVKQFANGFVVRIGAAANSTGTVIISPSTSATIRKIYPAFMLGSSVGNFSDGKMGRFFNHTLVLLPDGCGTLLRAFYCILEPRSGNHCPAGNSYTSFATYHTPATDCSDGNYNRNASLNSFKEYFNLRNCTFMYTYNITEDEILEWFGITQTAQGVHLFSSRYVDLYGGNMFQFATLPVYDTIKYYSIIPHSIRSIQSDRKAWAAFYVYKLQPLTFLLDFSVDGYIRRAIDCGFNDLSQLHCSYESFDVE
Nature of the experiment: ELISA on coated MERS-S1^A, OD450 [D].

Experiment [8] concerns the target MERS-S2 ectodomain (MERS-S2^ecto) (MERS-CoV EMC isolate, UniProt K9N5Q8 752-1262).
Experiment [9] deals with T5, NL63 coronavirus spike protein (HCoV-NL63, UniProt Q6Q1S2 16-1291).
T5 sequence: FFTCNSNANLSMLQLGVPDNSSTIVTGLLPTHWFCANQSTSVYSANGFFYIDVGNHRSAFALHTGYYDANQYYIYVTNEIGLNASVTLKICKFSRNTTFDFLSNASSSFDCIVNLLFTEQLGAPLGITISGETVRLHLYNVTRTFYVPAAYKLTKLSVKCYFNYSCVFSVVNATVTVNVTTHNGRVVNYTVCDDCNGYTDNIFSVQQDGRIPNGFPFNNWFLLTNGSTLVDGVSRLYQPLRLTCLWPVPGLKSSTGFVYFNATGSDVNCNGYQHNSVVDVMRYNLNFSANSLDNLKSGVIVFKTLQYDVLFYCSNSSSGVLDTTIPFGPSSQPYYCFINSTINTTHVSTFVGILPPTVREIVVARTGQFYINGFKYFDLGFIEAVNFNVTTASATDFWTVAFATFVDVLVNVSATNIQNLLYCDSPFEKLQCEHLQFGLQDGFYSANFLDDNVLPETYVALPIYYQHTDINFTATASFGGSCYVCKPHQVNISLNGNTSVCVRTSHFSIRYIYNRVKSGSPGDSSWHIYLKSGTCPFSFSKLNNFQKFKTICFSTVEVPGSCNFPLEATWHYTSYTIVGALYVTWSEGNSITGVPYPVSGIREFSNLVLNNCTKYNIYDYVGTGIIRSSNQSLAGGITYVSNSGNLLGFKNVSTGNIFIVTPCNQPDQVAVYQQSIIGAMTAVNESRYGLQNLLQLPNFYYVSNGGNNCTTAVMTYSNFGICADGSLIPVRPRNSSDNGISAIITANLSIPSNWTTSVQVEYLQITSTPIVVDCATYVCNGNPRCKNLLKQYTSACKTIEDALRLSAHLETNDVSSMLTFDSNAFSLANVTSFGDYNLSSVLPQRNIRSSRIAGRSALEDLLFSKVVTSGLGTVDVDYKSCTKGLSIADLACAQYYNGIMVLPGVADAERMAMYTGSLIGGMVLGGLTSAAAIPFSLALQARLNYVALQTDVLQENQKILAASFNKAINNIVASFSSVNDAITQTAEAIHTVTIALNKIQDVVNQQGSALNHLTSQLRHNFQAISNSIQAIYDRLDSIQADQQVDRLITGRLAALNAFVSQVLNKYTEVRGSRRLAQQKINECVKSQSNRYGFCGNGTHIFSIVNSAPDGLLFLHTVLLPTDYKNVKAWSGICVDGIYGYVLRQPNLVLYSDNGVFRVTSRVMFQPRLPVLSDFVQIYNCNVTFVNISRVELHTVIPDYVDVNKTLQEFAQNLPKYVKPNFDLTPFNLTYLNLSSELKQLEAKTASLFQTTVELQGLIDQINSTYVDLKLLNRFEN
Put plainly: ELISA on NL63 Secto.

Experiment [10] concerns the target T1, MERS-CoV S S1 subunit (MERS-S1). Nature of the experiment: MERS-S1 specific ELISA.

“And” between values parts separate entries of the source, which are not always exact repeats. Identical values can stand only once.

B1: 7.8h1 (antibody, V domains shown)
VH: QVQLVQSGAEVKKPGASVKVSCKASGYTFTSYDINWVRQATGQGLEWMGWMNPISGNTGYAQKFQGRVTMTRNTSRSTAYMELSSLRSEDTAVYYCARGQWLFDYWGQGTLVTVSS
VL: DIQMTQSPSTLSASIGDRVTITCRASQTISSWLAWYQQKPGKAPKLLIYKASSLESGVPSRFSGSGSGTEFTLTISSLQPDDFATYYCQQYNFYSYTFGQGTKLEIRR
Take B1: the binding result in [1] was “binds”.

B2: 7.7a9 (antibody, V domains shown)
VH: EVQLLESGGGSVQPGGSLRLSCEASGFTFNTYPMSWVRQAPGKGLEWVSGISGSGDRTFYEDSVKGRFTISRDNSKNTLYLQMHSLRGEDTAVYYCAKDLGGEGYWGQGTLVTVSS
VL: QAVVTQESALTTSPGETVTLTCRSSTGAVTTSNYANWVQKKPDHLFTGLIGGTNNRAPGVPARFSGSLIGDKAALTITGAQTEDEAIYFCALWYSNHSVFGGGTKLTVLG
For B2, the binding result in experiment [2] is “binds”.

B3: 7.4f3 (antibody, V domains shown)
VH: EVQLLESGGGLVQPGGSLRLSCEDSGVTFSSNPMSWVRQGPGKGLEWVSGISGSGDRTFYEDSVKGRFTISRDNSKNTLYLQMNSLRAEDTAVYYCAKDLGGEGNWGQGTLVTVSS
VL: QAVVTQESALTTSPGETVTLTCRSSTGAVTISNYANWVQEKPDHSFTGLIGGTNNRAPGVPARFSGSLIGDKAALTITGAQTEDEAIYFCALWYNNQSVFGGGTKLTVLG
As for B3, in experiment [3], the binding result is “binds”.

B4: 1.6c7 (antibody, V domains shown)
VH: QVQLQQSGPGLVKPSQTLSLTCAISGDSVSSDSAAWNWIRQSPSRGLEWLGRTYFRSKWNNHYAVSVKSRITINPDTSKNQFSLLLNPVTPEDTAVYYCARATLARGALDYWGQGTLVTVSS
VL: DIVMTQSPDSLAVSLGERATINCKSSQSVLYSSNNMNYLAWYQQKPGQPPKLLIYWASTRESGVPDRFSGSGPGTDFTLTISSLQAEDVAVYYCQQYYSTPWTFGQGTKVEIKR
For orientation: EC50 (read off the curve) means the midpoint of the concentration-response curve. Read a low EC50 (read off the curve) as a more potent agent. Take B4: in experiment [4], the “IC50, MERS-S pseudovirus (human IgG1)” value was found to be 2.45 nM. The “IC50, neutralization of MERS-S pseudovirus infectivity (1.6c7 antibody, H2L2)” value in experiment [4] is around 0.59 µg/mL. Besides, the binding result in [5] is reported as “no binding (tested: about 5x10^5 ng/ml)”; with peptide 11, “no binding”; with peptide 10, “no binding”; in experiment [6], “no binding (tested: about 5x10^5 ng/ml)”; with MERS-S1^A domain it was “no binding (tested: about 5x10^5 ng/ml)”; in [9], “no binding (tested: 25.00 (no unit printed))”. Further, in experiment [7], the “IC50, neutralisation of MERS-S VSV pseudovirus on Vero cells” value was 0.367 µg/ml and 2.45 nM. For the same molecule, the half-maximal effective concentration (EC50 (read off the curve)) in [8] was around 0.03 µg/mL.

B5: 5F1 heavy chain-only antibody (antibody, V domains shown)
VH: EVQLVESGGGLVQPGGSLRLSCAASGFTFSSYWMHWVRQAPGKGLVWVSRINSDGSSTSYADSVKGRFTISRDNAKNTLYLQMNSLRAEDTAVYYCGNPYFDYWGQGTLVTVSS
For the molecule B5, in [10], the binding result is “binds”.
